Experimental data taken from patent US20250339531A1, “DUX4 POLYPEPTIDES AND NUCLEIC ACIDS FOR TREATING INFLAMMATORY AND AUTOIMMUNE CONDITIONS” (Fred Hutchinson Cancer Center, priority 2021, published 2025).

Columns and labels:
Assay in all cases: anti-FLAG co-IP LC-MS, exp 3, +IFNg +Dox
[1] = target: Spectrin alpha chain, non-erythrocytic 1 (Homo sapiens) (UniProt Q13813)
[2] = target: Keratin, type II cytoskeletal 71 (Homo sapiens) (UniProt Q3SY84)
[3] = target: Protein disulfide-isomerase A3 (Fragment) (Homo sapiens) (UniProt P30101)
Filamin-A (Homo sapiens) = Filamin-A (Homo sapiens) (UniProt P21333)
[4] = target: Signal transducer and activator of transcription 3 (Homo sapiens) (UniProt P40763)
[5] = target: Tubulin beta-4B chain (Homo sapiens) (UniProt P68371)
[6] = target: Importin-5 (Fragment) (Homo sapiens) (UniProt O00410)
[7] = target: 60S ribosomal protein L11 (Homo sapiens) (UniProt P62913)
[8] = target: Heat shock protein HSP 90-alpha (Homo sapiens) (UniProt P07900)
Filamin-C (Homo sapiens) = Filamin-C (Homo sapiens) (UniProt Q14315)
Sequence of Filamin-C (Homo sapiens) (Q14315 whole entry): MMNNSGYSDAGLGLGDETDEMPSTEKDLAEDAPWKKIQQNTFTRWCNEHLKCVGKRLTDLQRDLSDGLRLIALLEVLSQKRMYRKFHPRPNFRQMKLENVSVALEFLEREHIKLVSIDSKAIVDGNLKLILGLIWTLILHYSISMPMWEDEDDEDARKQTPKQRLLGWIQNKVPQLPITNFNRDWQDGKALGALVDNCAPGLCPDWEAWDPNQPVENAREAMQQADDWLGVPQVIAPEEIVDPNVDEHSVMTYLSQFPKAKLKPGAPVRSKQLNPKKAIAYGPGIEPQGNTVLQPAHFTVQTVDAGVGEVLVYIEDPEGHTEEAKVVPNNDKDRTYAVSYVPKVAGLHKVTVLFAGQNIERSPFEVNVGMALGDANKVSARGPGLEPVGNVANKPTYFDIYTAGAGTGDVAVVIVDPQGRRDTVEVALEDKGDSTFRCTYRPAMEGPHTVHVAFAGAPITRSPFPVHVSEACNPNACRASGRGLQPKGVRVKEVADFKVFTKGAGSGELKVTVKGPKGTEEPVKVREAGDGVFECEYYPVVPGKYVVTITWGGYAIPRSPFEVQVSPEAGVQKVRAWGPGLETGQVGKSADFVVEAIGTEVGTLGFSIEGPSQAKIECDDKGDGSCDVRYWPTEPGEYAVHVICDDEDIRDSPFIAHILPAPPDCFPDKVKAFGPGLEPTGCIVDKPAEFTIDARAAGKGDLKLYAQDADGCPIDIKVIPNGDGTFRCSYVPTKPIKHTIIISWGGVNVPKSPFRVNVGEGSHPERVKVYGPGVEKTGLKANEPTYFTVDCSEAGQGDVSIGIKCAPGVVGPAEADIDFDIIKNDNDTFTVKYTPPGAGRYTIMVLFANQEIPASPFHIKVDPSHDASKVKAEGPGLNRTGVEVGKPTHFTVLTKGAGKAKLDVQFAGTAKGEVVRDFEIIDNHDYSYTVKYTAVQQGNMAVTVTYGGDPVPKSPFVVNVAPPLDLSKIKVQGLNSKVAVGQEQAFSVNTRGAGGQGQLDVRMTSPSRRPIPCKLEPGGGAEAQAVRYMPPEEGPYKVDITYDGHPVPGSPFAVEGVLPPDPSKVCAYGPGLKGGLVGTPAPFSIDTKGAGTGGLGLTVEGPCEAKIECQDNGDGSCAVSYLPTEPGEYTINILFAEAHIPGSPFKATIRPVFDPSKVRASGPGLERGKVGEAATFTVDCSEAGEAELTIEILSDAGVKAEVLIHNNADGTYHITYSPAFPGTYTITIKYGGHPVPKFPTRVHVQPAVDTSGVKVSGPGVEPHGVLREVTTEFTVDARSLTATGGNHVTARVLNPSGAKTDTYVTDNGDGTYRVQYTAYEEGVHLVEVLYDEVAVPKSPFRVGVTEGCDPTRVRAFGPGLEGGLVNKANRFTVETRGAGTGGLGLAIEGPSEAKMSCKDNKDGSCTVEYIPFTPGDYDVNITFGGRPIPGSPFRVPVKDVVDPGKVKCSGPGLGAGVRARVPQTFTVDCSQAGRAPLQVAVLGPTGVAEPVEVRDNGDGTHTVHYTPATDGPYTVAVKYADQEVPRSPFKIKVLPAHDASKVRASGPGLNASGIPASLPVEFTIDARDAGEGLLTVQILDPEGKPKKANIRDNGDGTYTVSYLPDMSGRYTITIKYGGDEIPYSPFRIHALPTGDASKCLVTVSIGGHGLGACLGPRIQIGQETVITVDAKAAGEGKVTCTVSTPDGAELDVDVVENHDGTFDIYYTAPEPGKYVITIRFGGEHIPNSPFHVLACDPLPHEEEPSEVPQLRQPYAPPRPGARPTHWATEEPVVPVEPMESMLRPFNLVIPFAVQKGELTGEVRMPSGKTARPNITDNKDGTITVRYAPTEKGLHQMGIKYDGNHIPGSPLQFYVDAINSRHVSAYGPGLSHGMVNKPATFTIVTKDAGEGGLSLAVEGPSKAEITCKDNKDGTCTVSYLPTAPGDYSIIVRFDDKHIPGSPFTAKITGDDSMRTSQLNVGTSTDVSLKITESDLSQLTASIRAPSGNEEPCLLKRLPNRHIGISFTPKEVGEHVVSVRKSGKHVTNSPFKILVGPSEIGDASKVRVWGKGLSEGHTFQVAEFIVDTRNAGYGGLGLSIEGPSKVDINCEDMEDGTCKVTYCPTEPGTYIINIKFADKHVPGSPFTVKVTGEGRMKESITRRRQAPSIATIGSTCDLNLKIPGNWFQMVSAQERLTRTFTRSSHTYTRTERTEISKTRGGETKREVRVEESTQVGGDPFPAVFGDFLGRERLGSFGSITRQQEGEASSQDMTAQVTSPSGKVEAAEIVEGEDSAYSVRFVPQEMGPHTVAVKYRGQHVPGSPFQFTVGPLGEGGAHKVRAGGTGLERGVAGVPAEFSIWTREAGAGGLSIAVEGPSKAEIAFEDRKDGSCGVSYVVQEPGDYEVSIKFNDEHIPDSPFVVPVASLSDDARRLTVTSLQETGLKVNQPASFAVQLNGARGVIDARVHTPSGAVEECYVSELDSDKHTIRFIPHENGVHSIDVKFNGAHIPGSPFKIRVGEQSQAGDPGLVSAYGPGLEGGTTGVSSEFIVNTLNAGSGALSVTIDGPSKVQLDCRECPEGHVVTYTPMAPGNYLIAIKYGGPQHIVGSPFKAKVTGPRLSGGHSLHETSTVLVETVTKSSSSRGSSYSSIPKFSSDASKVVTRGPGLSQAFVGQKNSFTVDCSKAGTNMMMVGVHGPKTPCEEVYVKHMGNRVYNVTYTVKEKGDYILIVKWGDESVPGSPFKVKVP

[9] = target: Antigen peptide transporter 1 (Homo sapiens) (UniProt Q03518)
[10] = target: T-complex protein 1 subunit theta (Homo sapiens) (UniProt P50990)
[11] = target: Fibronectin (Homo sapiens) (UniProt P02751)
[12] = target: Protease serine 2 preproprotein (Homo sapiens) (UniProt A6XMV9)
Sequence of Protease serine 2 preproprotein (Homo sapiens) (A6XMV9 entry or part of it limits assumed, form in doubt): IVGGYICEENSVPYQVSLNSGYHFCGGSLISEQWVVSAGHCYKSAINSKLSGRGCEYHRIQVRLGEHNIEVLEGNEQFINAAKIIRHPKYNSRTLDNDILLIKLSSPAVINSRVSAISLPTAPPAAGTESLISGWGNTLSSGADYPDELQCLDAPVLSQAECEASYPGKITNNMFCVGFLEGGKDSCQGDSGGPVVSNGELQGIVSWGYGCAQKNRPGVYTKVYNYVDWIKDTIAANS

[13] = target: Histone acetyltransferase type B catalytic subunit (Homo sapiens) (UniProt O14929)
[14] = target: 60S ribosomal protein L13 (Homo sapiens) (UniProt P26373)
[15] = target: AP-2 complex subunit alpha-1 (Homo sapiens) (UniProt O95782)
[16] = target: Sodium/potassium-transporting ATPase subunit alpha-1 (Homo sapiens) (UniProt P05023)
[17] = target: Serine/threonine-protein phosphatase 2A 65 kDa regulatory subunit A alpha isoform (Homo sapiens) (UniProt P30153)
[18] = target: S-adenosylhomocysteine hydrolase-like protein 1 (Homo sapiens) (UniProt O43865)
[19] = target: ATP synthase subunit alpha, mitochondrial (Homo sapiens) (UniProt P25705)
[20] = target: D-3-phosphoglycerate dehydrogenase (Homo sapiens) (UniProt O43175)
Myosin-9 (Homo sapiens) = Myosin-9 (Homo sapiens) (UniProt P35579)
[21] = target: Polypyrimidine tract-binding protein 1 (Homo sapiens) (UniProt P26599)
Sequence of Polypyrimidine tract-binding protein 1 (Homo sapiens) (P26599 whole entry): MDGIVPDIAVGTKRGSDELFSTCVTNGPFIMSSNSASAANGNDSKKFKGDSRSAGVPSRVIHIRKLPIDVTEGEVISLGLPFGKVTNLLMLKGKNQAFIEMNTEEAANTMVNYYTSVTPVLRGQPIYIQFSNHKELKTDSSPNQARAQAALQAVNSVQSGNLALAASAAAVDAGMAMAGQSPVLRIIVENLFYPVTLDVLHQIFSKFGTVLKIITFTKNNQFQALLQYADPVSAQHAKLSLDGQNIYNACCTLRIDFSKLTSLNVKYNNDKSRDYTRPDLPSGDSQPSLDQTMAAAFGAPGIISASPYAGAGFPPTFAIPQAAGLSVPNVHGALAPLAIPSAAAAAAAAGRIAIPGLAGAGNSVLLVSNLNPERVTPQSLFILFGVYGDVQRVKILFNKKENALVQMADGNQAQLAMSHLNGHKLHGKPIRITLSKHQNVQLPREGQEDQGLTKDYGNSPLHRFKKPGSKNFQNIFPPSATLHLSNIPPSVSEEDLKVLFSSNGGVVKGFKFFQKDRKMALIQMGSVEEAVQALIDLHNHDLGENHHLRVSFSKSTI

[22] = target: 60S ribosomal protein L3 (Homo sapiens) (UniProt P39023)
[23] = target: Probable ubiquitin carboxyl-terminal hydrolase FAF-X (Homo sapiens) (UniProt Q93008)
[24] = target: 40S ribosomal protein S3a (Homo sapiens) (UniProt P61247)
[25] = target: 26S proteasome non-ATPase regulatory subunit 2 (Homo sapiens) (UniProt Q13200)
[26] = target: Y-box-binding protein 3 (Homo sapiens) (UniProt P16989)
[27] = target: Aspartyl/asparaginyl beta-hydroxylase (Homo sapiens) (UniProt Q12797)
Sequence of Aspartyl/asparaginyl beta-hydroxylase (Homo sapiens) (Q12797 whole entry): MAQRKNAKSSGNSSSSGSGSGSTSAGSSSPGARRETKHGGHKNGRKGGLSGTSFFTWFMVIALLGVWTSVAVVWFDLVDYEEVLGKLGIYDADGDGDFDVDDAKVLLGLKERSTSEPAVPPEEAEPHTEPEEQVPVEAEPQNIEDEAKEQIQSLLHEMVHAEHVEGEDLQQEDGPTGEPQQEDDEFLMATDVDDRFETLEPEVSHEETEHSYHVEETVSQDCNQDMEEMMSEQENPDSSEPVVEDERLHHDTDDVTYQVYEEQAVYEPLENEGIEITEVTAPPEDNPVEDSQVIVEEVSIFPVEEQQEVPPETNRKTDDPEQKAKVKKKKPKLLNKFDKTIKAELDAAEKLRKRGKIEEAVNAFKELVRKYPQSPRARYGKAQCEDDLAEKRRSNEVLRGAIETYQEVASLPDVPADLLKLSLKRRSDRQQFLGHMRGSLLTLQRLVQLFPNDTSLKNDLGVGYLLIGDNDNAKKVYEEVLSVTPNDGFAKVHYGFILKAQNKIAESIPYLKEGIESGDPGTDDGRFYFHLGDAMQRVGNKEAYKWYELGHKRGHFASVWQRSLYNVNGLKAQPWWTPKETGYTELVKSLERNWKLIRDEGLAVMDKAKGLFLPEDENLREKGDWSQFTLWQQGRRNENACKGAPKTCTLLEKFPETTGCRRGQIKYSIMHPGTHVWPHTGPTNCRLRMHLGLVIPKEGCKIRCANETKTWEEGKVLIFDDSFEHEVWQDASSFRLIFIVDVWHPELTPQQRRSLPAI

[28] = target: Junctional sarcoplasmic reticulum protein 1 (Homo sapiens) (UniProt Q96MG2)
[29] = target: 60S ribosomal protein L18 (Fragment) (Homo sapiens) (UniProt Q07020)
[30] = target: Myosin regulatory light chain 12A (Homo sapiens) (UniProt J3QRS3)
Sequence of Myosin regulatory light chain 12A (Homo sapiens) (J3QRS3 entry or part of it limits assumed, form in doubt): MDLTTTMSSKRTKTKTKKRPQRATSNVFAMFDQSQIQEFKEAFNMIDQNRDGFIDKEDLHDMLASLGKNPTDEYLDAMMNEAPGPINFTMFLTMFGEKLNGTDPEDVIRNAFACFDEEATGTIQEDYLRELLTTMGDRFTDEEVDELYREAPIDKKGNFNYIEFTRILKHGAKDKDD

[31] = target: Dolichyl-diphosphooligosaccharide--protein glycosyltransferase subunit 1 (Homo sapiens) (UniProt P04843)
Sequence of Dolichyl-diphosphooligosaccharide--protein glycosyltransferase subunit 1 (Homo sapiens) (P04843 24-607 limits assumed): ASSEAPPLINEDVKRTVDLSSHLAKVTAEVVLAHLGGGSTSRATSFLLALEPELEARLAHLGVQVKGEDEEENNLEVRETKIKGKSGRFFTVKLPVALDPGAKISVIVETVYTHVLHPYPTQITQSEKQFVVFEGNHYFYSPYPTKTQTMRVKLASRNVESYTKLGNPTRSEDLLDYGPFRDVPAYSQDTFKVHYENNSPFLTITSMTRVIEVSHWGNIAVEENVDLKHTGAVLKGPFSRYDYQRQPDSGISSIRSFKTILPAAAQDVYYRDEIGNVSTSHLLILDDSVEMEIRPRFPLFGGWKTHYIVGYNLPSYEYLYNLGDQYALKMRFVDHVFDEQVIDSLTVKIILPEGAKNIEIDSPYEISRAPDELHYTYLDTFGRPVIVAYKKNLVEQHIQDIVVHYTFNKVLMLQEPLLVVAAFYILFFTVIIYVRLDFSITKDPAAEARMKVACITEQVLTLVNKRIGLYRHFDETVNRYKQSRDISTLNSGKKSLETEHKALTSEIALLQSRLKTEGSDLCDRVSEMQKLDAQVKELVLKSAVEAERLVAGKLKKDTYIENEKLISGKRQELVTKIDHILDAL

[32] = target: Heat shock cognate 71 kDa protein (Homo sapiens) (UniProt P11142)
[33] = target: Ribonuclease inhibitor (Homo sapiens) (UniProt P13489)

## i3XFLAG-NLS-CTDaa154-424
[1]
  PSMs: 10 PSMs
[2]
  PSMs: 9 PSMs
[3]
  PSMs: 2 PSMs
Filamin-A (Homo sapiens)
  PSMs: 12 PSMs
[4]
  PSMs: 3 PSMs
[5]
  PSMs: 70 PSMs
[6]
  PSMs: 3 PSMs
[7]
  PSMs: 2 PSMs
[8]
  PSMs: 9 PSMs
Filamin-C (Homo sapiens)
  PSMs: 7 PSMs
[9]
  PSMs: 3 PSMs
[10]
  PSMs: 2 PSMs
[11]
  PSMs: 48 PSMs
[12]
  PSMs: 2 PSMs
[13]
  PSMs: 3 PSMs
[14]
  PSMs: 7 PSMs
[15]
  PSMs: 31 PSMs
[16]
  PSMs: 3 PSMs
[17]
  PSMs: 14 PSMs
[18]
  PSMs: 11 PSMs
[19]
  PSMs: 2 PSMs
[20]
  PSMs: 3 PSMs
Myosin-9 (Homo sapiens)
  PSMs: 242 PSMs
[21]
  PSMs: 2 PSMs
[22]
  PSMs: 11 PSMs
[23]
  PSMs: 5 PSMs
[24]
  PSMs: 5 PSMs
[25]
  PSMs: 3 PSMs
[26]
  PSMs: 3 PSMs
[27]
  PSMs: 9 PSMs
[28]
  PSMs: 10 PSMs
[29]
  PSMs: 5 PSMs
[30]
  PSMs: 3 PSMs
[31]
  PSMs: 14 PSMs
[32]
  PSMs: 54 PSMs
[33]
  PSMs: 3 PSMs
